The values that follow are results of earlier work, collected in publication PMC4589137.

The target in the data set is α-melanocyte stimulating hormone (α-MSH) (UniProt P01189).

pKd: −log10 of the molar value.

By pKd is commonly meant the negative decadic logarithm of the Kd, by convention in mol/L. Take “melanocortin 1 receptor (MC1R) (from UniProt Q01727)”: the negative logarithm of the Kd (pKd) was 9.40.
